Measurements taken from US20260242419A1, “A CYCLIC PEPTIDE FOR TRAPPING INTERLEUKIN-1 BETA” (Merck Sharp & Dohme LLC, priority 2023, published 2026).
Starred links: 1 amine or outer side, 2 acyl side, 3 side chain; linkers in the order of their positions; H or OH if unused. Non-standard residues stand in square brackets, D forms with d. TyrEtNAc = (2S)-3-[4-(2-acetamidoethoxy)phenyl]-2-amino-propanoic acid, CC(=O)NCCOc1ccc(C[C@H](N[*:1])C(=O)[*:2])cc1; 2PyrimAla = (2S)-2-amino-3-(pyrimidin-2-yl)propanoic acid, O=C([C@H](Cc1ncccn1)N[*:1])[*:2]; F4ptCCA = trans-4-[4-(2-amino-2-carboxyethyl)phenyl]cyclohexanecarboxylic acid; Phe(4-(cis-4-COOH-cHex)) = N[C@@H](Cc1ccc([C@H]2CC[C@@H](C(=O)O)CC2)cc1)C(=O)O; dPro(4R-(4-pyridylmethyl)) = O=C(O)[C@H]1C[C@@H](Cc2ccncc2)CN1; Trp(βS-Me,4-F) = C[C@@H](c1c[nH]c2cccc(F)c12)[C@H](N)C(=O)O; Bip(4'-COOH) = N[C@@H](Cc1ccc(-c2ccc(C(=O)O)cc2)cc1)C(=O)O; Ala(1-bicyclo(1.1.1)pentyl) = N[C@@H](CC12CC(C1)C2)C(=O)O; dPro(4R-Bzl(4-F)) = O=C(O)[C@H]1C[C@@H](Cc2ccc(F)cc2)CN1; Ala(pyrimidin-5-yl) = N[C@@H](Cc1cncnc1)C(=O)O; Phe(4-COOH) = N[C@@H](Cc1ccc(C(=O)O)cc1)C(=O)O; Ala(4-Pyridazinyl) = N[C@@H](Cc1ccnnc1)C(=O)O; Ala(2-pyrazinyl) = N[C@@H](Cc1cnccn1)C(=O)O; Pro(cis-4-F) = O=C(O)[C@@H]1C[C@H](F)CN1; Ala(4-THP) = N[C@@H](CC1CCOCC1)C(=O)O; 4Pal = N[C@@H](Cc1ccncc1)C(=O)O; d(αMeS) = C[C@@](N)(CO)C(=O)O; Orn = NCCC[C@H](N)C(=O)O; Dab = NCC[C@H](N)C(=O)O; Dap = NC[C@H](N)C(=O)O; Aib = CC(C)(N)C(=O)O

B1: SEQ ID NO: 113 (peptide)
peptide: cyclo([Bip(4'-COOH)][4Pal][Phe(4-COOH)]G[Pro(cis-4-F)][Trp(βS-Me,4-F)][Aib]EW[Aib][2PyrimAla]Q[Dab]G[dPro(4R-Bzl(4-F))])
SMILES: C[C@@H](c1c[nH]c2cccc(F)c12)[C@@H]1NC(=O)[C@@H]2C[C@H](F)CN2C(=O)CNC(=O)[C@H](Cc2ccc(C(=O)O)cc2)NC(=O)[C@H](Cc2ccncc2)NC(=O)[C@H](Cc2ccc(-c3ccc(C(=O)O)cc3)cc2)NC(=O)[C@H]2C[C@@H](Cc3ccc(F)cc3)CN2C(=O)CNC(=O)[C@H](CCN)NC(=O)[C@H](CCC(N)=O)NC(=O)[C@H](Cc2ncccn2)NC(=O)C(C)(C)NC(=O)[C@H](Cc2c[nH]c3ccccc23)NC(=O)[C@H](CCC(=O)O)NC(=O)C(C)(C)NC1=O
B2: SEQ ID NO: 112 (peptide)
peptide: cyclo([Bip(4'-COOH)][Ala(1-bicyclo(1.1.1)pentyl)][Phe(4-COOH)]G[Pro(cis-4-F)][Trp(βS-Me,4-F)][Aib]SW[d(αMeS)][Ala(pyrimidin-5-yl)]Q[Dab]G[dPro(4R-(4-pyridylmethyl))])
SMILES: C[C@@H](c1c[nH]c2cccc(F)c12)[C@@H]1NC(=O)[C@@H]2C[C@H](F)CN2C(=O)CNC(=O)[C@H](Cc2ccc(C(=O)O)cc2)NC(=O)[C@H](CC23CC(C2)C3)NC(=O)[C@H](Cc2ccc(-c3ccc(C(=O)O)cc3)cc2)NC(=O)[C@H]2C[C@@H](Cc3ccncc3)CN2C(=O)CNC(=O)[C@H](CCN)NC(=O)[C@H](CCC(N)=O)NC(=O)[C@H](Cc2cncnc2)NC(=O)[C@@](C)(CO)NC(=O)[C@H](Cc2c[nH]c3ccccc23)NC(=O)[C@H](CO)NC(=O)C(C)(C)NC1=O
B3: SEQ ID NO: 109 (peptide)
peptide: cyclo([Bip(4'-COOH)][Ala(1-bicyclo(1.1.1)pentyl)][Phe(4-COOH)]G[Pro(cis-4-F)][Trp(βS-Me,4-F)][Aib]SW[Aib][Ala(pyrimidin-5-yl)]Q[Orn]G[dPro(4R-(4-pyridylmethyl))])
SMILES: C[C@@H](c1c[nH]c2cccc(F)c12)[C@@H]1NC(=O)[C@@H]2C[C@H](F)CN2C(=O)CNC(=O)[C@H](Cc2ccc(C(=O)O)cc2)NC(=O)[C@H](CC23CC(C2)C3)NC(=O)[C@H](Cc2ccc(-c3ccc(C(=O)O)cc3)cc2)NC(=O)[C@H]2C[C@@H](Cc3ccncc3)CN2C(=O)CNC(=O)[C@H](CCCN)NC(=O)[C@H](CCC(N)=O)NC(=O)[C@H](Cc2cncnc2)NC(=O)C(C)(C)NC(=O)[C@H](Cc2c[nH]c3ccccc23)NC(=O)[C@H](CO)NC(=O)C(C)(C)NC1=O
B4: SEQ ID NO: 117 (peptide)
peptide: cyclo([Phe(4-(cis-4-COOH-cHex))][4Pal][Phe(4-COOH)]G[Pro(cis-4-F)][Trp(βS-Me,4-F)][Aib]EW[Aib][Ala(2-pyrazinyl)]Q[Dab]G[dPro(4R-Bzl(4-F))])
SMILES: C[C@@H](c1c[nH]c2cccc(F)c12)[C@@H]1NC(=O)[C@@H]2C[C@H](F)CN2C(=O)CNC(=O)[C@H](Cc2ccc(C(=O)O)cc2)NC(=O)[C@H](Cc2ccncc2)NC(=O)[C@H](Cc2ccc([C@H]3CC[C@@H](C(=O)O)CC3)cc2)NC(=O)[C@H]2C[C@@H](Cc3ccc(F)cc3)CN2C(=O)CNC(=O)[C@H](CCN)NC(=O)[C@H](CCC(N)=O)NC(=O)[C@H](Cc2cnccn2)NC(=O)C(C)(C)NC(=O)[C@H](Cc2c[nH]c3ccccc23)NC(=O)[C@H](CCC(=O)O)NC(=O)C(C)(C)NC1=O
B5: SEQ ID NO: 110 (peptide)
peptide: cyclo([Bip(4'-COOH)][Ala(1-bicyclo(1.1.1)pentyl)][Phe(4-COOH)]G[Pro(cis-4-F)][Trp(βS-Me,4-F)][Aib]SW[Aib][Orn]Q[Dab]G[dPro(4R-Bzl(4-F))])
SMILES: C[C@@H](c1c[nH]c2cccc(F)c12)[C@@H]1NC(=O)[C@@H]2C[C@H](F)CN2C(=O)CNC(=O)[C@H](Cc2ccc(C(=O)O)cc2)NC(=O)[C@H](CC23CC(C2)C3)NC(=O)[C@H](Cc2ccc(-c3ccc(C(=O)O)cc3)cc2)NC(=O)[C@H]2C[C@@H](Cc3ccc(F)cc3)CN2C(=O)CNC(=O)[C@H](CCN)NC(=O)[C@H](CCC(N)=O)NC(=O)[C@H](CCCN)NC(=O)C(C)(C)NC(=O)[C@H](Cc2c[nH]c3ccccc23)NC(=O)[C@H](CO)NC(=O)C(C)(C)NC1=O
B6: SEQ ID NO: 115 (peptide)
peptide: cyclo([Bip(4'-COOH)][4Pal][Phe(4-COOH)]G[Pro(cis-4-F)][Trp(βS-Me,4-F)][Aib]EW[Aib][Ala(4-Pyridazinyl)]Q[Dab]G[dPro(4R-Bzl(4-F))])
SMILES: C[C@@H](c1c[nH]c2cccc(F)c12)[C@@H]1NC(=O)[C@@H]2C[C@H](F)CN2C(=O)CNC(=O)[C@H](Cc2ccc(C(=O)O)cc2)NC(=O)[C@H](Cc2ccncc2)NC(=O)[C@H](Cc2ccc(-c3ccc(C(=O)O)cc3)cc2)NC(=O)[C@H]2C[C@@H](Cc3ccc(F)cc3)CN2C(=O)CNC(=O)[C@H](CCN)NC(=O)[C@H](CCC(N)=O)NC(=O)[C@H](Cc2ccnnc2)NC(=O)C(C)(C)NC(=O)[C@H](Cc2c[nH]c3ccccc23)NC(=O)[C@H](CCC(=O)O)NC(=O)C(C)(C)NC1=O
B7: SEQ ID NO: 111 (peptide)
peptide: cyclo([Bip(4'-COOH)][4Pal][Phe(4-COOH)]G[Pro(cis-4-F)][Trp(βS-Me,4-F)][Aib]SW[d(αMeS)][Ala(pyrimidin-5-yl)]Q[Dab]G[dPro(4R-(4-pyridylmethyl))])
SMILES: C[C@@H](c1c[nH]c2cccc(F)c12)[C@@H]1NC(=O)[C@@H]2C[C@H](F)CN2C(=O)CNC(=O)[C@H](Cc2ccc(C(=O)O)cc2)NC(=O)[C@H](Cc2ccncc2)NC(=O)[C@H](Cc2ccc(-c3ccc(C(=O)O)cc3)cc2)NC(=O)[C@H]2C[C@@H](Cc3ccncc3)CN2C(=O)CNC(=O)[C@H](CCN)NC(=O)[C@H](CCC(N)=O)NC(=O)[C@H](Cc2cncnc2)NC(=O)[C@@](C)(CO)NC(=O)[C@H](Cc2c[nH]c3ccccc23)NC(=O)[C@H](CO)NC(=O)C(C)(C)NC1=O
B8: SEQ ID NO: 108 (peptide)
peptide: cyclo([Bip(4'-COOH)][4Pal][Phe(4-COOH)]G[Pro(cis-4-F)][Trp(βS-Me,4-F)][Aib]SW[Aib][Ala(pyrimidin-5-yl)]Q[Orn]G[dPro(4R-(4-pyridylmethyl))])
SMILES: C[C@@H](c1c[nH]c2cccc(F)c12)[C@@H]1NC(=O)[C@@H]2C[C@H](F)CN2C(=O)CNC(=O)[C@H](Cc2ccc(C(=O)O)cc2)NC(=O)[C@H](Cc2ccncc2)NC(=O)[C@H](Cc2ccc(-c3ccc(C(=O)O)cc3)cc2)NC(=O)[C@H]2C[C@@H](Cc3ccncc3)CN2C(=O)CNC(=O)[C@H](CCCN)NC(=O)[C@H](CCC(N)=O)NC(=O)[C@H](Cc2cncnc2)NC(=O)C(C)(C)NC(=O)[C@H](Cc2c[nH]c3ccccc23)NC(=O)[C@H](CO)NC(=O)C(C)(C)NC1=O
B9: SEQ ID NO: 114 (peptide)
peptide: cyclo([F4ptCCA][4Pal][Phe(4-COOH)]G[Pro(cis-4-F)][Trp(βS-Me,4-F)][Aib]EW[Aib][Ala(pyrimidin-5-yl)]Q[Dab]G[dPro(4R-Bzl(4-F))])
B10: SEQ ID NO: 118 (peptide)
peptide: cyclo([Bip(4'-COOH)][4Pal][Phe(4-COOH)]G[Pro(cis-4-F)][Trp(βS-Me,4-F)][Aib]EW[Aib][Ala(4-THP)]Q[Dab]G[dPro(4R-Bzl(4-F))])
SMILES: C[C@@H](c1c[nH]c2cccc(F)c12)[C@@H]1NC(=O)[C@@H]2C[C@H](F)CN2C(=O)CNC(=O)[C@H](Cc2ccc(C(=O)O)cc2)NC(=O)[C@H](Cc2ccncc2)NC(=O)[C@H](Cc2ccc(-c3ccc(C(=O)O)cc3)cc2)NC(=O)[C@H]2C[C@@H](Cc3ccc(F)cc3)CN2C(=O)CNC(=O)[C@H](CCN)NC(=O)[C@H](CCC(N)=O)NC(=O)[C@H](CC2CCOCC2)NC(=O)C(C)(C)NC(=O)[C@H](Cc2c[nH]c3ccccc23)NC(=O)[C@H](CCC(=O)O)NC(=O)C(C)(C)NC1=O
B11: SEQ ID NO: 116 (peptide)
peptide: cyclo([Bip(4'-COOH)][Ala(4-Pyridazinyl)][Phe(4-COOH)]G[Pro(cis-4-F)][Trp(βS-Me,4-F)][Aib]EW[Aib][Ala(pyrimidin-5-yl)]Q[Dab]G[dPro(4R-Bzl(4-F))])
SMILES: C[C@@H](c1c[nH]c2cccc(F)c12)[C@@H]1NC(=O)[C@@H]2C[C@H](F)CN2C(=O)CNC(=O)[C@H](Cc2ccc(C(=O)O)cc2)NC(=O)[C@H](Cc2ccnnc2)NC(=O)[C@H](Cc2ccc(-c3ccc(C(=O)O)cc3)cc2)NC(=O)[C@H]2C[C@@H](Cc3ccc(F)cc3)CN2C(=O)CNC(=O)[C@H](CCN)NC(=O)[C@H](CCC(N)=O)NC(=O)[C@H](Cc2cncnc2)NC(=O)C(C)(C)NC(=O)[C@H](Cc2c[nH]c3ccccc23)NC(=O)[C@H](CCC(=O)O)NC(=O)C(C)(C)NC1=O
B12: SEQ ID NO: 11 (peptide)
peptide: cyclo([TyrEtNAc][4Pal][Phe(4-COOH)]G[Pro(cis-4-F)][Trp(βS-Me,4-F)][Aib]EW[Aib][Ala(pyrimidin-5-yl)]Q[Dap]G[dPro(4R-Bzl(4-F))])
SMILES: CC(=O)NCCOc1ccc(C[C@@H]2NC(=O)[C@H]3C[C@@H](Cc4ccc(F)cc4)CN3C(=O)CNC(=O)[C@H](CN)NC(=O)[C@H](CCC(N)=O)NC(=O)[C@H](Cc3cncnc3)NC(=O)C(C)(C)NC(=O)[C@H](Cc3c[nH]c4ccccc34)NC(=O)[C@H](CCC(=O)O)NC(=O)C(C)(C)NC(=O)[C@H]([C@@H](C)c3c[nH]c4cccc(F)c34)NC(=O)[C@@H]3C[C@H](F)CN3C(=O)CNC(=O)[C@H](Cc3ccc(C(=O)O)cc3)NC(=O)[C@H](Cc3ccncc3)NC2=O)cc1

molecular target: Recombinant human IL-1β (BioLegend 579404) (human, UniProt P01584 117-269); assay: cell-based or functional assay

| MRC5 IC50 | Binder |
| --- | --- |
| 0.018 nM | B1 |
| 0.018 nM | B2 |
| 0.036 nM | B3 |
| 0.027 nM | B4 |
| 0.038 nM | B5 |
| 0.023 nM | B6 |
| 0.019 nM | B7 |
| 0.024 nM | B8 |
| 0.035 nM | B9 |
| 0.016 nM | B10 |
| 0.04 nM | B11 |
| 0.045 nM | B12 |
